Experimental findings from patent US20030119090 are described below.

Data set [1] addresses T1, Cbz-Thr(αManα1,2Man)-Val-OMe (Compound 11).
T1 chain: TV

The target of data set [2] is T2, Thr(α-Man)-Val-OMe (Compound 8).
T2 chain: TV

For data set [3], the target named is T3, Boc-Tyr-Thr(α-Man)-Val-OMe (Compound 10).
T3 chain: YTV

The target in data set [4] is T4, Cbz-Thr(α-Man)-Val-OMe (Compound 7).
T4 chain: TV

Data set [5] concerns the target T5, Cbz-Thr(α-Man)-Val-Gly-Ala-NH2 (Compound 9).
T5 chain: TVGA

B1: recombinant α1,2-mannosyltransferase (soluble catalytic domain, protein sequence 31-442 of α1,2-ManT from S. cerevisiae, expressed from pManflag20 in the E. … (protein)
chain: RTQQYIPSSISAAFDFTSGSISPEQQVISEENDAKKLEQSALNSEASEDSEAMDEESKALKAAAEKADAPIDTKTTMDYITPSFANKAGKPKACYVTLVRNKELKGLLSSIKYVENKINKKFPYPWVFLNDEPFTEEFKEAVTKAVSSEVKFGILPKEHWSYPEWINQTKAAEIRADAATKYIYGGSESYRHMCRYQSGFFWRHELLEEYDWYWRVEPDIKLYCDINYDVFKWMQENEKVYGFTVSIHEYEVTIPTLWQTSMDFIKKNPEYLDENNLMSFLSNDNGKTYNLCHFWSNFEIANLNLWRSPAYREYFDTLDHQGGFFYERWGDAPVHSIAAALFLPKDKIHYFSDIGYHHPPYDNCPLDKEVYNSNNCECDQGNDFTFQGYSCGKEYYDAQGLVKPKNWKKFRE
For the protein B1, the Km (acceptor), mannosyl transfer reaction was 26 mM in data set [1], 0.7 mM in data set [3] and 7.8 mM in data set [4]. Moreover, the Vrelative (ratio of Vmax, ManαOMe = 1.0), mannosyl transfer from GDP-Man to acceptor in data set [1] came to 0.17; in data set [2], 0.68; in data set [3] it was 0.35; in data set [4], 0.71; in data set [5] it was 0.55. For the same protein, the “Km, fold lower than that of Compound 7” value in data set [3] is listed as “This value is 10 times less than that of Compound 7”. The “Km, fold lower than that of ManαOMe (Compound 1)” value in data set [3] is given as 80 times smaller than that of ManαOMe (Compound 1).
